Measured values taken from the Human Domainome abundance scans (Beltran et al. 2025).
± gives the uncertainty stated by the source.

B1: GA-binding protein alpha chain, residues 172 to 250; numbered along this chain, Q06546 (parent)
chain: GYRKEQERLGIPYDPIQWSTDQVLHWVVWVMKEFSMTDIDLTTLNISGRELCSLNQEDFFQRVPRGEILWSHLELLRKY

Variants of: B1
Assay: abundance fitness (aPCA) (normalised: wild type 0, dead -1); higher = more abundant; growth selection in yeast, the domain comes from the species named
Details: Homo sapiens
V63C gave an abundance fitness of -0.012 ± 0.074. Variant V63E has an abundance fitness of -0.563 ± 0.045. V63A showed an abundance fitness of -0.075 ± 0.044. For V63H, the abundance fitness was -0.886 ± 0.4. For V63F, the abundance fitness was 0.018 ± 0.057. Variant V63Y has an abundance fitness of -0.221 ± 0.1. V63N showed an abundance fitness of -0.384 ± 0.12. In the case of V63K, the abundance fitness is reported as -0.864 ± 0.22. For V63T, the abundance fitness was -0.172 ± 0.072. In the case of V63P, the abundance fitness is reported as -0.667 ± 0.12. With V63L the abundance fitness was -0.073 ± 0.029. Work on V63M yielded an abundance fitness of -0.113 ± 0.073. With V63R the abundance fitness was -1.06 ± 0.11. V63G showed an abundance fitness of -0.218 ± 0.027. V63D gave an abundance fitness of -0.667 ± 0.18. With V63I the abundance fitness was -0.077 ± 0.068. For V63Q, the abundance fitness was -0.235 ± 0.068. With V63W the abundance fitness was -0.042 ± 0.041. Work on H72S yielded an abundance fitness of -0.143 ± 0.035. For H72W, the abundance fitness was -1.02 ± 0.16. H72L showed an abundance fitness of -0.751 ± 0.056. H72K showed an abundance fitness of -0.282 ± 0.12. For H72I, the abundance fitness was -0.338 ± 0.16. H72A gave an abundance fitness of -0.244 ± 0.043. For H72V, the abundance fitness was -0.554 ± 0.051. For H72E, the abundance fitness was 0.009 ± 0.081. Work on H72R yielded an abundance fitness of -0.295 ± 0.032. For H72T, the abundance fitness was -0.38 ± 0.046. H72M showed an abundance fitness of -0.322 ± 0.055. In the case of H72F, the abundance fitness is reported as -0.888 ± 0.34. With H72Y the abundance fitness was -0.46 ± 0.15. For H72Q, the abundance fitness was 0.019 ± 0.061. For H72D, the abundance fitness was -0.214 ± 0.091. For H72P, the abundance fitness was -1 ± 0.12. Variant L69V has an abundance fitness of -0.393 ± 0.04. In the case of L69I, the abundance fitness is reported as -0.499 ± 0.19. L69M showed an abundance fitness of -0.124 ± 0.051. L69K showed an abundance fitness of -1 ± 0.33. L69S showed an abundance fitness of -0.882 ± 0.089. With L69P the abundance fitness was -1.06 ± 0.16. With L69E the abundance fitness was -0.934 ± 0.2. Variant L69R has an abundance fitness of -0.977 ± 0.075. In the case of L69W, the abundance fitness is reported as -0.432 ± 0.044. For L69H, the abundance fitness was -0.259 ± 0.14. In the case of L69F, the abundance fitness is reported as -0.027 ± 0.061. With L69A the abundance fitness was -0.311 ± 0.032. Variant L69Y has an abundance fitness of -0.265 ± 0.08. Work on L69D yielded an abundance fitness of -0.758 ± 0.38. In the case of L69C, the abundance fitness is reported as -0.57 ± 0.069. Variant L69N has an abundance fitness of -0.974 ± 0.46. For L69G, the abundance fitness was -1.04 ± 0.089. For G66I, the abundance fitness was -0.772 ± 0.37. Work on G66H yielded an abundance fitness of -0.608 ± 0.11. Work on G66V yielded an abundance fitness of -0.835 ± 0.083. Work on G66D yielded an abundance fitness of -0.889 ± 0.13. In the case of G66M, the abundance fitness is reported as -0.967 ± 0.16. For G66A, the abundance fitness was -0.025 ± 0.039. With G66C the abundance fitness was -0.298 ± 0.04. G66K gave an abundance fitness of -0.728 ± 0.12. Variant G66R has an abundance fitness of -0.562 ± 0.04. Work on G66T yielded an abundance fitness of -0.735 ± 0.17. For G66Q, the abundance fitness was -0.773 ± 0.17. G66S showed an abundance fitness of -0.199 ± 0.037. G66L showed an abundance fitness of -0.795 ± 0.077. For G66P, the abundance fitness was -0.019 ± 0.04. For I68Q, the abundance fitness was -0.077 ± 0.048. Work on I68A yielded an abundance fitness of 0.017 ± 0.046. I68N gave an abundance fitness of -0.194 ± 0.096. With I68S the abundance fitness was -0.076 ± 0.041. With I68E the abundance fitness was -0.044 ± 0.042. With I68M the abundance fitness was -0.091 ± 0.058. Variant I68L has an abundance fitness of -0.037 ± 0.032. I68W gave an abundance fitness of -0.115 ± 0.045. Variant I68H has an abundance fitness of -0.095 ± 0.1. I68Y showed an abundance fitness of -0.037 ± 0.071. With I68V the abundance fitness was -0.021 ± 0.038. Work on I68P yielded an abundance fitness of 0.023 ± 0.035. Variant I68F has an abundance fitness of -0.053 ± 0.077. Work on I68T yielded an abundance fitness of -0.065 ± 0.051. Variant I68C has an abundance fitness of -0.055 ± 0.06. In the case of I68G, the abundance fitness is reported as -0.087 ± 0.039. With E67P the abundance fitness was -0.239 ± 0.042. Variant E67V has an abundance fitness of -0.118 ± 0.036. E67H gave an abundance fitness of 0.004 ± 0.083. In the case of E67I, the abundance fitness is reported as -0.189 ± 0.09. E67S showed an abundance fitness of -0.057 ± 0.037. E67G showed an abundance fitness of -0.027 ± 0.034. E67D showed an abundance fitness of -0.133 ± 0.08. With E67A the abundance fitness was -0.029 ± 0.039. Work on E67L yielded an abundance fitness of -0.249 ± 0.049. Work on E67R yielded an abundance fitness of -0.101 ± 0.032. For E67Q, the abundance fitness was -0.121 ± 0.08. For E67M, the abundance fitness was -0.147 ± 0.055. In the case of E67N, the abundance fitness is reported as -0.077 ± 0.098. E67F gave an abundance fitness of -0.249 ± 0.088. E67C showed an abundance fitness of -0.19 ± 0.11. For E67T, the abundance fitness was -0.038 ± 0.05. E67W gave an abundance fitness of -0.153 ± 0.05. E67K gave an abundance fitness of 0.064 ± 0.12. For S71Y, the abundance fitness was -0.027 ± 0.18. S71F gave an abundance fitness of -0.102 ± 0.07. For S71L, the abundance fitness was -0.156 ± 0.04. S71N gave an abundance fitness of -0.115 ± 0.06. In the case of S71A, the abundance fitness is reported as -0.046 ± 0.039. Variant S71C has an abundance fitness of -0.167 ± 0.067. S71H gave an abundance fitness of -0.029 ± 0.079. For S71I, the abundance fitness was -0.157 ± 0.059. Work on S71Q yielded an abundance fitness of 0.01 ± 0.053. S71D showed an abundance fitness of 0.027 ± 0.074. Work on S71W yielded an abundance fitness of -0.042 ± 0.032. For S71R, the abundance fitness was -0.034 ± 0.036. For S71G, the abundance fitness was -0.01 ± 0.034. Work on S71P yielded an abundance fitness of -0.102 ± 0.044. Variant S71E has an abundance fitness of -0.021 ± 0.11. For S71K, the abundance fitness was -0.102 ± 0.084. With S71V the abundance fitness was -0.131 ± 0.046. For S71T, the abundance fitness was 0.021 ± 0.052. S71M gave an abundance fitness of -0.162 ± 0.076. Variant R65V has an abundance fitness of -0.157 ± 0.043. In the case of R65A, the abundance fitness is reported as -0.003 ± 0.04. With R65K the abundance fitness was -0.013 ± 0.078. Variant R65D has an abundance fitness of 0.084 ± 0.056. R65N gave an abundance fitness of -0.07 ± 0.15. R65F showed an abundance fitness of -0.177 ± 0.082. R65P showed an abundance fitness of -0.455 ± 0.05. For R65L, the abundance fitness was -0.141 ± 0.037. For R65Y, the abundance fitness was -0.033 ± 0.089. Work on R65E yielded an abundance fitness of 0.033 ± 0.055. R65M showed an abundance fitness of -0.127 ± 0.065. With R65G the abundance fitness was 0.007 ± 0.026. R65H showed an abundance fitness of -0.111 ± 0.071. R65C showed an abundance fitness of -0.004 ± 0.081. For W70M, the abundance fitness was -0.557 ± 0.095. Work on W70Y yielded an abundance fitness of -0.058 ± 0.082. W70S showed an abundance fitness of -0.913 ± 0.087. With W70H the abundance fitness was -0.494 ± 0.13. For W70K, the abundance fitness was -0.872 ± 0.25. W70V gave an abundance fitness of -0.92 ± 0.1. In the case of W70Q, the abundance fitness is reported as -0.875 ± 0.2. W70N gave an abundance fitness of -0.766 ± 0.22. W70T gave an abundance fitness of -1.05 ± 0.16. With W70C the abundance fitness was -0.793 ± 0.12. Variant W70R has an abundance fitness of -0.526 ± 0.036. Work on W70G yielded an abundance fitness of -0.843 ± 0.062. In the case of W70F, the abundance fitness is reported as -0.181 ± 0.083. W70A showed an abundance fitness of -0.748 ± 0.071. For W70E, the abundance fitness was -0.801 ± 0.12. In the case of R62Y, the abundance fitness is reported as -0.133 ± 0.13. In the case of R62W, the abundance fitness is reported as -0.314 ± 0.039. Work on R62V yielded an abundance fitness of -0.039 ± 0.08. Work on R62T yielded an abundance fitness of -0.194 ± 0.056. With P64S the abundance fitness was -0.219 ± 0.041. For P64Q, the abundance fitness was -0.266 ± 0.05. Variant P64E has an abundance fitness of -0.23 ± 0.064. With P64K the abundance fitness was -0.159 ± 0.057. With P64V the abundance fitness was -0.406 ± 0.039. For P64G, the abundance fitness was -0.158 ± 0.034. P64I gave an abundance fitness of -0.554 ± 0.15. In the case of P64N, the abundance fitness is reported as -0.177 ± 0.16. P64C gave an abundance fitness of -0.288 ± 0.098. Work on P64M yielded an abundance fitness of -0.952 ± 0.33. Variant P64A has an abundance fitness of -0.295 ± 0.054. With P64T the abundance fitness was -0.333 ± 0.044. In the case of P64W, the abundance fitness is reported as -0.67 ± 0.062. Work on P64F yielded an abundance fitness of -0.611 ± 0.23. P64D gave an abundance fitness of -0.738 ± 0.27. Variant P64Y has an abundance fitness of -0.744 ± 0.13.
